Experimental data reported in IntAct's records for PubMed 18001824.

Molecular target: rnf8_human RNF8 (UniProt O76064)
Sequence of UniProt O76064 (O76064 whole entry): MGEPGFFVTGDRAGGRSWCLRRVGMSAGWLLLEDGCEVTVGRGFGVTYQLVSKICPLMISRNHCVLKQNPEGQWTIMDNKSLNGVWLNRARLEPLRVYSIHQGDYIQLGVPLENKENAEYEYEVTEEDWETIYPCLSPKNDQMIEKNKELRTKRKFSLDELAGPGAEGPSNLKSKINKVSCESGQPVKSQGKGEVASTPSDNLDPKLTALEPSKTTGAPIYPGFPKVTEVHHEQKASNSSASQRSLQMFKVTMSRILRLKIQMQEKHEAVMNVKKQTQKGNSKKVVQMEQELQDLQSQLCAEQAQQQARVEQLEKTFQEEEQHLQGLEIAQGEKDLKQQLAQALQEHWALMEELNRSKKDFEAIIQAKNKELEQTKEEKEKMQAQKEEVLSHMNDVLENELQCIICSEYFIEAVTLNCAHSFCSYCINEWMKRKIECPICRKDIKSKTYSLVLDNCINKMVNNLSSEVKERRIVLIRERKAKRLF

Substance: Mediator of DNA damage checkpoint protein 1 (Homo sapiens), Q14676 T699A;T719A;T752A
- effect of a mutation on the interaction: decreasing interaction
